The text below walks through data of PMC2808332, “Expanding the Substantial Interactome of NEMO Using Protein Microarrays” (PLoS ONE, 2010).

B1: Nucleolar protein family A, member 2 (natural protein, human, UniProt Q9NX24 1-153, looked up)
chain: MTKIKADPDGPEAQAEACSGERTYQELLVNQNPIAQPLASRRLTRKLYKCIKKAVKQKQIRRGVKEVQKFVNKGEKGIMVLAGDTLPIEVYCHLPVMCEDRNLPYVYIPSKTDLGAAAGSKRPTCVIMVKPHEEYQEAYDECLEEVQSLPLPL
notes: Nucleolar protein family A, member 2, human; also called NOLA2; source: insect cell/baculovirus, purified, spotted (Invitrogen Protoarray v4.0)
B2: Nucleosome assembly protein 1-like 5 (natural protein, human, UniProt Q96NT1 1-182, looked up)
chain: MADSENQGPAEPSQAAAAAEAAAEEVMAEGGAQGGDCDSAAGDPDSAAGQMAEEPQTPAENAPKPKNDFIESLPNSVKCRVLALKKLQKRCDKIEAKFDKEFQALEKKYNDIYKPLLAKIQELTGEMEGCAWTLEGEEEEEEEYEDDEEEGEDEEEEEAAAEAAAGAKHDDAHAEMPDDAKK
notes: Nucleosome assembly protein 1-like 5, human; also called NAP1L5; source: insect cell/baculovirus, purified, spotted (Invitrogen Protoarray v4.0)
B3: Adenine phosphoribosyltransferase (natural protein, human, UniProt P07741-1 1-180, looked up)
chain: MADSELQLVEQRIRSFPDFPTPGVVFRDISPVLKDPASFRAAIGLLARHLKATHGGRIDYIAGLDSRGFLFGPSLAQELGLGCVLIRKRGKLPGPTLWASYSLEYGKAELEIQKDALEPGQRVVVVDDLLATGGTMNAACELLGRLQAEVLECVSLVELTSLKGREKLAPVPFFSLLQYE
notes: Adenine phosphoribosyltransferase, human; also called APRT; source: insect cell/baculovirus, purified, spotted (Invitrogen Protoarray v4.0)
B4: t-complex 10 (mouse)-like (natural protein, human, UniProt Q8TDR4 1-215, looked up)
chain: MLAGQLEARDPKEGTHPEDPCPGAGAVMEKTAVAAEVLTEDCNTGEMPPLQQQIIRLHQELGRQKSLWADVHGKLRSHIDALREQNMELREKLRALQLQRWKARKKSAASPHAGQESHTLALEPAFGKISPLSADEETIPKYAGHKNQSATLLGQRSSSNNSAPPKPMSLKIERISSWKTPPQENRDKNLSRRRQDRRATPTGRPTPCAERRGGV
notes: t-complex 10 (mouse)-like, human; also called TCP10L; source: insect cell/baculovirus, purified, spotted (Invitrogen Protoarray v4.0)
B5: Chromosome 19 open reading frame 12 (natural protein, human, UniProt Q9NSK7-4 1-141, looked up)
chain: MTIMVEDIMKLLCSLSGERKMKAAVKHSGKGALVTGAMAFVGGLVGGPPGLAVGGAVGGLLGAWMTSGQFKPVPQILMELPPAEQQRLFNEAAAIIRHLEWTDAVQLTALVMGSEALQQQLLAMLVNYVTKELRAEIQYDD
notes: Chromosome 19 open reading frame 12, human; also called C19ORF12; source: insect cell/baculovirus, purified, spotted (Invitrogen Protoarray v4.0)
B6: LIM and cysteine-rich domains 1 (natural protein, human, UniProt Q9NZU5-1 1-365, looked up)
chain: MAKVAKDLNPGVKKMSLGQLQSARGVACLGCKGTCSGFEPHSWRKICKSCKCSQEDHCLTSDLEDDRKIGRLLMDSKYSTLTARVKGGDGIRIYKRNRMIMTNPIATGKDPTFDTITYEWAPPGVTQKLGLQYMELIPKEKQPVTGTEGAFYRRRQLMHQLPIYDQDPSRCRGLLENELKLMEEFVKQYKSEALGVGEVALPGQGGLPKEEGKQQEKPEGAETTAATTNGSLSDPSKEVEYVCELCKGAAPPDSPVVYSDRAGYNKQWHPTCFVCAKCSEPLVDLIYFWKDGAPWCGRHYCESLRPRCSGCDEIIFAEDYQRVEDLAWHRKHFVCEGCEQLLSGRAYIVTKGQLLCPTCSKSKRS
notes: LIM and cysteine-rich domains 1, human; also called LMCD1; source: insect cell/baculovirus, purified, spotted (Invitrogen Protoarray v4.0)
B7: Hemoglobin, zeta (natural protein, human, UniProt P02008 1-142, looked up)
chain: MSLTKTERTIIVSMWAKISTQADTIGTETLERLFLSHPQTKTYFPHFDLHPGSAQLRAHGSKVVAAVGDAVKSIDDIGGALSKLSELHAYILRVDPVNFKLLSHCLLVTLAARFPADFTAEAHAAWDKFLSVVSSVLTEKYR
notes: Hemoglobin, zeta, human; also called HBZ; source: insect cell/baculovirus, purified, spotted (Invitrogen Protoarray v4.0)
B8: DnaJ (Hsp40) homolog, subfamily C, member 8 (natural protein, human, UniProt O75937 1-253, looked up)
chain: MAASGESGTSGGGGSTEEAFMTFYSEVKQIEKRDSVLTSKNQIERLTRPGSSYFNLNPFEVLQIDPEVTDEEIKKRFRQLSILVHPDKNQDDADRAQKAFEAVDKAYKLLLDQEQKKRALDVIQAGKEYVEHTVKERKKQLKKEGKPTIVEEDDPELFKQAVYKQTMKLFAELEIKRKEREAKEMHERKRQREEEIEAQEKAKREREWQKNFEESRDGRVDSWRNFQANTKGKKEKKNRTFLRPPKVKMEQRE
notes: DnaJ (Hsp40) homolog, subfamily C, member 8, human; also called DNAJC8; source: insect cell/baculovirus, purified, spotted (Invitrogen Protoarray v4.0)
B9: Vesicle-associated membrane protein 3 (cellubrevin) (natural protein, human, UniProt Q15836 1-100, looked up)
chain: MSTGPTAATGSNRRLQQTQNQVDEVVDIMRVNVDKVLERDQKLSELDDRADALQAGASQFETSAAKLKRKYWWKNCKMWAIGITVLVIFIIIIIVWVVSS
notes: Vesicle-associated membrane protein 3 (cellubrevin), human; also called VAMP3; source: insect cell/baculovirus, purified, spotted (Invitrogen Protoarray v4.0)
B10: Tumor protein, translationally-controlled 1 (natural protein, human, UniProt P13693 1-172, looked up)
chain: MIIYRDLISHDEMFSDIYKIREIADGLCLEVEGKMVSRTEGNIDDSLIGGNASAEGPEGEGTESTVITGVDIVMNHHLQETSFTKEAYKKYIKDYMKSIKGKLEEQRPERVKPFMTGAAEQIKHILANFKNYQFFIGENMNPDGMVALLDYREDGVTPYMIFFKDGLEMEKC
notes: Tumor protein, translationally-controlled 1, human; also called TPT1; source: insect cell/baculovirus, purified, spotted (Invitrogen Protoarray v4.0)
B11: PHD finger protein 7 (natural protein, human, UniProt Q9BWX1-1 1-381, looked up)
chain: MKTVKEKKECQRLRKSAKTRRVTQRKPSSGPVCWLCLREPGDPEKLGEFLQKDNISVHYFCLILSSKLPQRGQSNRGFHGFLPEDIKKEAARASRKICFVCKKKGAAINCQKDQCLRNFHLPCGQERGCLSQFFGEYKSFCDKHRPTQNIQHGHVGEESCILCCEDLSQQSVENIQSPCCSQAIYHRKCIQKYAHTSAKHFFKCPQCNNRKEFPQEMLRMGIHIPDRDAAWELEPGAFSDLYQRYQHCDAPICLYEQGRDSFEDEGRWCLILCATCGSHGTHRDCSSLRSNSKKWECEECSPAAATDYIPENSGDIPCCSSTFHPEEHFCRDNTLEENPGLSWTDWPEPSLLEKPESSRGRRSYSWRSKGVRITNSCKKSK
notes: PHD finger protein 7, human; also called PHF7; source: insect cell/baculovirus, purified, spotted (Invitrogen Protoarray v4.0)
B12: Family with sequence similarity 128, member A (natural protein, human, UniProt Q6P582 1-158, looked up)
chain: MAAQGVGPGPGSAAPPGLEAARQKLALRRKKVLSTEEMELYELAQAAGGGIDPDVFKILVDLLKLNVAPLAVFQMLKSMCAGQRLASEPQDPAAVSLPTSSVPETRGRDKGSAALGGVLALAERSNHEGSSQRMPRQPSATRLPKGGGPGKSPTQGST
notes: also called FAM128A; source: insect cell/baculovirus, purified, spotted (Invitrogen Protoarray v4.0)
B13: Growth arrest and DNA-damage-inducible, gamma (natural protein, human, UniProt O95257 1-159, looked up)
chain: MTLEEVRGQDTVPESTARMQGAGKALHELLLSAQRQGCLTAGVYESAKVLNVDPDNVTFCVLAAGEEDEGDIALQIHFTLIQAFCCENDIDIVRVGDVQRLAAIVGAGEEAGAPGDLHCILISNPNEDAWKDPALEKLSLFCEESRSVNDWVPSITLPE
notes: Growth arrest and DNA-damage-inducible, gamma, human; also called GADD45G; source: insect cell/baculovirus, purified, spotted (Invitrogen Protoarray v4.0)

The assay concerns the target T1, NEMO (NF-κB essential modulator), tag-free, biotinylated (human, UniProt Q9Y6K9 1-419, biotin (in vitro biotinylation kit, biotin:NEMO molar ratio 9:1)).
T1 construct: NEMO, NF-κB essential modulator, human, 48 kDa; also called biotinylated NEMO; biotin-NEMO; source: E. coli BL21(DE3), purified (glutathione sepharose), GST removed with thrombin, biotinylated in vitro
Kind of assay: peptide or protein array; Invitrogen Protoarray v4.0, about 8,400 human proteins spotted on nitrocellulose-coated glass slides; 10 µg biotinylated tag-free NEMO in 120 µl probing buffer (PBS, 0.5 mM DTT, 5 mM MgCl2, 5% glycerol, 0.05% Triton X-100), 4°C, 1.5 h; bound NEMO detected with labelled streptavidin; hits Z-score > 3, hits of the biotin-GST control array subtracted. Particulars: both partners purified.
With B1, the binding result is given as “binds”. On to B2, for which the binding result was “binds”. The value for B3 was “binds”; that for B4 was “binds”; that for B5 was “binds”.

Turning to B6, the binding result is reported as “binds”. The value for B7 was “binds”; that for B8 was “binds”; that for B9 was “binds”.

As to B10, the binding result is “binds”. For B11 the value was “binds”; for B12, “binds”; for B13, “binds”.
